In article PMC9785345:

What was measured:
[1] = molecular target: recombinant SARS-CoV-2 spike receptor-binding domain (rRBD), Wuhan-Hu-1 isolate, residues 319-541 wi (SARS-CoV-2) (UniProt P0DTC2); assay: SEC
[2] = molecular target: recombinant SARS-CoV-2 spike receptor-binding domain (rRBD), Wuhan-Hu-1 isolate, residues 319-541 wi (SARS-CoV-2) (UniProt P0DTC2); assay: non-reducing SDS-PAGE with western blot
[3] = molecular target: recombinant SARS-CoV-2 spike receptor-binding domain (rRBD), Wuhan-Hu-1 isolate, residues 319-541 wi (SARS-CoV-2) (UniProt P0DTC2); assay: non-reducing SDS-PAGE

recombinant SARS-CoV-2 spike receptor-binding domain (rRBD), Wuhan-Hu-1 isolate, residues 319-541 wi (from UniProt P0DTC2 319-541) (domain or fragment)
stoichiometry N [1]: 2
percent dimer of total rRBD (4 dpi) [2]: 17.9%
stoichiometry N [2]: 2
stoichiometry N [3]: 2
